Results: PMC9576766, “The human TRPA1 intrinsic cold and heat sensitivity involves separate channel structures beyond the N-ARD domain” (Nature Communications, 2022)

Biological target: the molecule itself
Assay: SEC; gel filtration on a Sephadex 100 (G-100) size exclusion column; 20 mM HEPES, 10% glycerol, 150 mM NaCl, pH 7.8, 0.014% Fos-Choline-14; immunoglobulin of 150 kDa as reference for the tetrameric fraction

B1: Δ1–854 hTRPA1 (human TRPA1 without its N-terminal ankyrin repeat domain and transmembrane segments S1–S4) (domain or fragment, UniProt O75762 855-1119, looked up)
chain: NCGIFIVMLEVILKTLLRSTVVFIFLLLAFGLSFYILLNLQDPFSSPLLSIIQTFSMMLGDINYRESFLEPYLRNELAHPVLSFAQLVSFTIFVPIVLMNLLIGLAVGDIAEVQKHASLKRIAMQVELHTSLEKKLPLWFLRKVDQKSTIVYPNKPRSGGMLFHIFCFLFCTGEIRQEIPNADKSLEMEILKQKYRLKDLTFLLEKQHELIKLIIQKMEIISETEDDDSHCSFQDRFKKEQMEQRNSRWNTVLRAVKAKTHHLEP
notes: keeps most of the S4-S5 linker (N855, C856), S5-S6 and the C-terminal domain; gene optimised for expression in insect cells; the vector pTriEx-3 is named; The tetramer is by gel filtration; a smaller monomeric fraction eluted as well; also called S1–S4 transmembrane domain deleted hTRPA1
  stoichiometry N: 4
